In this assay the target is T1, His6-Ddx21_(motif2) (human, UniProt Q9NR30 1-783, motif2 (aa440–444) -RTIIF- to -RTAIA-).
T1 construct: Site-directed mutagenesis of pRSET-A-DDX21; also called mut2; (aa440–444: motif2); source: E. coli DH5α, purified (SP-Sepharose, Ni-NTA)
T1 sequence (looked up): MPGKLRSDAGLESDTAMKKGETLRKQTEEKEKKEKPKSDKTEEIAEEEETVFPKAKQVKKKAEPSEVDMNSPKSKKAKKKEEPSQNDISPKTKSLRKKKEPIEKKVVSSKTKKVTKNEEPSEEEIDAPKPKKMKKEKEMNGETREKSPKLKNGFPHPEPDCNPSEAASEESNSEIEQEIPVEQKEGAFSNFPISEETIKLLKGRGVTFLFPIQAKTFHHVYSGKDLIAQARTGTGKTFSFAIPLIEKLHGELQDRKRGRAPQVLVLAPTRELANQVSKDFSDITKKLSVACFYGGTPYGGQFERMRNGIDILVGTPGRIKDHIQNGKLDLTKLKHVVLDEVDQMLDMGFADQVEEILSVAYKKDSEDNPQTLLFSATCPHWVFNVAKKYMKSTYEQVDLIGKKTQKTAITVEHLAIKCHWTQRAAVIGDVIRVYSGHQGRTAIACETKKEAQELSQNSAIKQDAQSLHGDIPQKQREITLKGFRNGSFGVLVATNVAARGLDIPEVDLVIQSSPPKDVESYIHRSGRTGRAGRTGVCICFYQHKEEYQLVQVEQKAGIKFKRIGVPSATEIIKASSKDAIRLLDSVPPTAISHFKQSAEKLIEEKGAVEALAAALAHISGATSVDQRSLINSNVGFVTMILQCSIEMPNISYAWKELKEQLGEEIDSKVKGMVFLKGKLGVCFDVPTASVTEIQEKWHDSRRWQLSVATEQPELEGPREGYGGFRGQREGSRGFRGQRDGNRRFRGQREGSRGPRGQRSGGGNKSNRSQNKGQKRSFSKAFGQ
The assay can be described thus: pull-down; 300 ng PP1 and 200 ng His6-Ddx21 in 25 mM Tris pH 7.5, 5% glycerol, 150 mM NaCl, 0.5% Igepal630, 10 mM imidazole, 4°C; Ni-NTA beads; wash 450 mM NaCl, 0.5% Tween-20 (γ: 500 mM NaCl, 0.75% Tween-20); western blot. The settings on record: both partners purified.

The values below come from article PMC3386289, “Isolation of Human Mitotic Protein Phosphatase Complexes: Identification of a Complex between Protein Phosphatase 1 and the RNA Helicase Ddx21” (PLoS ONE, 2012).

B1: PP1β, bacterially expressed and purified (enzyme, human, UniProt P62140 1-327, looked up)
chain: MADGELNVDSLITRLLEVRGCRPGKIVQMTEAEVRGLCIKSREIFLSQPILLELEAPLKICGDIHGQYTDLLRLFEYGGFPPEANYLFLGDYVDRGKQSLETICLLLAYKIKYPENFFLLRGNHECASINRIYGFYDECKRRFNIKLWKTFTDCFNCLPIAAIVDEKIFCCHGGLSPDLQSMEQIRRIMRPTDVPDTGLLCDLLWSDPDKDVQGWGENDRGVSFTFGADVVSKFLNRHDLDLICRAHQVVEDGYEFFAKRQLVTLFSAPNYCGEFDNAGGMMSVDETLMCSFQILKPSEKKAKYQYGGLNSGRPVTPPRTANPPKKR
notes: Protein phosphatase 1 catalytic subunit, isoform β, human; also called protein phosphatase 1 beta
With B1, the binding result was “binds”.
